Laboratory results from article PMC10838372 (Journal of inherited metabolic disease, 2023).
Where a chain is given by its changes, count along the chain named. In names and notes the source's numbering stands.

B1: dihydroorotase (DHO) domain of human CAD, wild type (domain or fragment, UniProt P27708 1456-1846, looked up)
chain: MTSQKLVRLPGLIDVHVHLREPGGTHKEDFASGTAAALAGGITMVCAMPNTRPPIIDAPALALAQKLAEAGARCDFALFLGASSENAGTLGTVAGSAAGLKLYLNETFSELRLDSVVQWMEHFETWPSHLPIVAHAEQQTVAAVLMVAQLTQRSVHICHVARKEEILLIKAAKARGLPVTCEVAPHHLFLSHDDLERLGPGKGEVRPELGSRQDVEALWENMAVIDCFASDHAPHTLEEKCGSRPPPGFPGLETMLPLLLTAVSEGRLSLDDLLQRLHHNPRRIFHLPPQEDTYVEVDLEHEWTIPSHMPFSKAHWTPFEGQKVKGTVRRVVLRGEVAYIDGQVLVPPGYGQDVRKWPQGAVPQLPPSAPATSEMTTTPERPRRGIPGLPD
modifications: carboxylated lysine (KCX) at K1556
B2: DHO domain of human CAD, variant R1617Q (domain or fragment, UniProt P27708 1456-1846, looked up)
chain: B1 chain with R162Q
B3: DHO domain of human CAD, variant R1475Q (domain or fragment, UniProt P27708 1456-1846, looked up)
chain: B1 chain with R20Q
B4: DHO domain of human CAD, variant R1789Q (domain or fragment, UniProt P27708 1456-1846, looked up)
chain: B1 chain with R334Q
B5: DHO domain of human CAD, variant R1722W (domain or fragment, UniProt P27708 1456-1846, looked up)
chain: B1 chain with R267W
B6: DHO domain of human CAD, variant K1556T (domain or fragment, UniProt P27708 1456-1846, looked up)
chain: B1 chain with K101T
B7: DHO domain of human CAD, variant R1810Q (domain or fragment, UniProt P27708 1456-1846, looked up)
chain: B1 chain with R355Q
B8: DHO domain of human CAD, variant K1482M (domain or fragment, UniProt P27708 1456-1846, looked up)
chain: B1 chain with K27M
B9: DHO domain of human CAD, variant R1785C (domain or fragment, UniProt P27708 1456-1846, looked up)
chain: B1 chain with R330C

Target: the molecule itself
Test: SEC

Stoichiometry N, 2:
B1
B2
B3
B4
B5
B6
B7
B8
B9
